Laboratory results published in paper PMC10519980, “Characterization and structure-based protein engineering of a regiospecific saponin acetyltransferase from Astragalus membranaceus” (Nature Communications, 2023).
Positions count from the first letter of the chain named. In names and notes the source's numbering stands.

B1: AmAT7-3 (Astragalus propinquus; A310G) (protein)
chain: MSSLRLVSSSTIQAANDNNDDSSQLIDLTVWDLIGLERESIQQGLLYHHPNQVDTPNQIQHLKHSLSSTLSFFPPFAGRLVITEYEDNTATCFIACNNAGALFVHAVAENTTISDILQPNKYVPPIVNSLFSLNGVKNREGTIQPLLVVQVTELVDGIFIGLTVNHVVADGKSFWLFVNSWAEISRGFQKPSKLPTLERWFLNDTDHPIRFSFSMEEEKKKFQSGQLTTRFFHFTRENIAHLKSKANGEVTLGNTERRISSLQALLAHVWRSVVRCERIDPQEVLYYILLIDARTRLIPPLEDDYFGNAGDAGVVIMKAGELLEGGLGNVAWNMNKVISLNSDEKIKNRYKSWLRTPQLPSMGMHTTFASQLLIIANSPRFNVYGNDFGWGKPLAVRSSAENKRDCKIVLFAGAEEGSIDIEVCLPYEILEALGNDAEFLDNHSIG
notes: full length cloned in pET-28a(+), E. coli BL21(DE3), Ni-NTA; for kinetics and crystals pET28a-TEV plus size exclusion
B2: AmAT7-3 (Astragalus propinquus; A310W) (protein)
chain: B1 chain with G310W
notes: as for B1

Substrate: CC(C)(O)[C@@H]1CC[C@](C)([C@H]2[C@@H](O)C[C@@]3(C)[C@@H]4C[C@H](O[C@@H]5O[C@H](CO)[C@@H](O)[C@H](O)[C@H]5O)[C@H]5C(C)(C)[C@@H](O[C@@H]6OC[C@@H](O)[C@H](O)[C@H]6O)CC[C@@]56C[C@@]46CC[C@]23C)O1
Experiment: UHPLC kinetic assay of acetylation
Format: biochemical, Astragalus propinquus
Conditions: acetyl-CoA as acyl donor

Protein	Km (paper prints 'toward 1a', read as formation of product 1a (C3'-O-acetylation) from 1) [µM]	Km (paper prints 'toward 1b', read as formation of product 1b (C4'-O-acetylation) from 1) [µM]
B1	76.7	
B2		168.3
